# Values of other authors, collected in paper PMC12860966.
# Molecular target: MMP-9 (Homo sapiens) (UniProt P14780)
# Chain of UniProt P14780 (P14780 94-707): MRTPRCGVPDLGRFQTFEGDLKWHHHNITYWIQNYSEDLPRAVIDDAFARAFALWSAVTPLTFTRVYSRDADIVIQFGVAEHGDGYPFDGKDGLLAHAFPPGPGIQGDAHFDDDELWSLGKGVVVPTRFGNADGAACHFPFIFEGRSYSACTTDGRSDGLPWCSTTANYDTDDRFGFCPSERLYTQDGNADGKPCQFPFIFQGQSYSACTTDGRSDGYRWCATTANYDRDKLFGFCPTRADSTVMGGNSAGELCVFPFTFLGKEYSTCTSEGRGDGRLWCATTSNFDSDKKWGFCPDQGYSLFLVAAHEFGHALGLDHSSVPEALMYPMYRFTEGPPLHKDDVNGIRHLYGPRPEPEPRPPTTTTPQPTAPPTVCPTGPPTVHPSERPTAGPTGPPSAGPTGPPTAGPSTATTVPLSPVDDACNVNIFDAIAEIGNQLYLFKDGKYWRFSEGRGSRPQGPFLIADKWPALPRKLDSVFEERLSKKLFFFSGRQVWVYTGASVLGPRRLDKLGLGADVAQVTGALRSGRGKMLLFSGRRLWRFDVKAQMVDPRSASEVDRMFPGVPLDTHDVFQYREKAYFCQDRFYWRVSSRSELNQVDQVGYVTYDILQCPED
substance,measurement,value
TIMP-1 (from UniProt P01033),Ki,3.36 nM
